In paper PMC8163392, “Interrogating surface versus intracellular transmembrane receptor populations using cell-impermeable SNAP-tag substrates†” (Chemical Science, 2020):

Target: the molecule itself
Assay: single molecule pulldown (SiMPull) with counting of photobleaching steps; surface receptors labelled on live cells with 1 uM SBG-JF549; cells lysed in 1.2% IGEPAL, lysate diluted in 0.1% IGEPAL; receptors captured at low density by biotinylated anti-HA antibody on NeutrAvidin/PEG coverslips; TIRF imaging

B1: HA-SNAP-metabotropic glutamate receptor 2 (receptor, UniProt P31421 19-872, looked up)
chain: EGPAKKVLTLEGDLVLGGLFPVHQKGGPAEECGPVNEHRGIQRLEAMLFALDRINRDPHLLPGVRLGAHILDSCSKDTHALEQALDFVRASLSRGADGSRHICPDGSYATHSDAPTAVTGVIGGSYSDVSIQVANLLRLFQIPQISYASTSAKLSDKSRYDYFARTVPPDFFQAKAMAEILRFFNWTYVSTVASEGDYGETGIEAFELEARARNICVATSEKVGRAMSRAAFEGVVRALLQKPSARVAVLFTRSEDARELLAATQRLNASFTWVASDGWGALESVVAGSERAAEGAITIELASYPISDFASYFQSLDPWNNSRNPWFREFWEERFHCSFRQRDCAAHSLRAVPFEQESKIMFVVNAVYAMAHALHNMHRALCPNTTHLCDAMRPVNGRRLYKDFVLNVKFDAPFRPADTDDEVRFDRFGDGIGRYNIFTYLRAGSGRYRYQKVGYWAEGLTLDTSFIPWASPSAGPLPASRCSEPCLQNEVKSVQPGEVCCWLCIPCQPYEYRLDEFTCADCGLGYWPNASLTGCFELPQEYIRWGDAWAVGPVTIACLGALATLFVLGVFVRHNATPVVKASGRELCYILLGGVFLCYCMTFVFIAKPSTAVCTLRRLGLGTAFSVCYSALLTKTNRIARIFGGAREGAQRPRFISPASQVAICLALISGQLLIVAAWLVVEAPGTGKETAPERREVVTLRCNHRDASMLGSLAYNVLLIALCTLYAFKTRKCPENFNEAKFIGFTMYTTCIIWLAFLPIFYVTSSDYRVQTTTMCVSVSLSGSVVLGCLFAPKLHIILFQPQKNVVSHRAPTSRFGSAAPRASANLGQGSGSQFVPTVCNGREVVDSTTSSL
modifications: JF549 (two-colour experiment: JF549 or JF646) covalently attached to the SNAP-tag
notes: metabotropic glutamate receptor 2 (mGluR2), class C GPCR; The rat receptor is my surmise; also called HA-SNAP-mGluR2; SNAP-mGluR2; source: HEK 293T, transfected, in lysate (1.2% IGEPAL); not shown: SNAP-tag, N-terminal, kept
- stoichiometry N: 2
